Test results from the supplement of paper PMC9112550, “Optimization of the antimicrobial peptide Bac7 by deep mutational scanning” (BMC Biology, 2022).

Test system: Escherichia coli TOP10
Test: shrunken log2 fold change of peptide-encoding DNA abundance (4.5 h post-induction vs induction); higher = less antimicrobial activity (less host growth inhibition)
Conditions: time post-induction: 4.5 h; library: site-saturation at positions 5, 18, 19, 20
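Also: peptides expressed intracellularly from a pBAD plasmid library in pooled LB shake-flask culture, induced with 0.3% L-arabinose, DNA abundance read by NGS, three biological replicates, DESeq2 with apeglm shrinkage.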

## RRIRDRPPRLPRPRPRPWHLPRP
  shrunken log2 fold change: -0.231

## RRIRVRPPRLPRPRPRPPQFPRP
  shrunken log2 fold change: 0.146

## RRIRYRPPRLPRPRPRPAYPPRP
  shrunken log2 fold change: -0.422

## RRIRRRPPRLPRPRPRPDNGPRP
  shrunken log2 fold change: -0.0214

## RRIRLRPPRLPRPRPRPRRIPRP
  shrunken log2 fold change: 0.214

## RRIRWRPPRLPRPRPRPHLEPRP
  shrunken log2 fold change: -0.16

## RRIRERPPRLPRPRPRPQLHPRP
  shrunken log2 fold change: -0.216

## RRIRSRPPRLPRPRPRPCQVPRP
  shrunken log2 fold change: -0.0521

## RRIRWRPPRLPRPRPRPFSDPRP
  shrunken log2 fold change: -0.0111

## RRIRIRPPRLPRPRPRPWLPPRP
  shrunken log2 fold change: -0.325

## RRIRIRPPRLPRPRPRPIHNPRP
  shrunken log2 fold change: -0.936

## RRIRQRPPRLPRPRPRPLCYPRP
  shrunken log2 fold change: -0.383

## RRIRWRPPRLPRPRPRPQGRPRP
  shrunken log2 fold change: 0.64

## RRIRVRPPRLPRPRPRPALYPRP
  shrunken log2 fold change: 0.22

## RRIRDRPPRLPRPRPRPDTLPRP
  shrunken log2 fold change: 0.125

## RRIRWRPPRLPRPRPRPCDTPRP
  shrunken log2 fold change: -0.165

## RRIRDRPPRLPRPRPRPPCAPRP
  shrunken log2 fold change: 0.371

## RRIRTRPPRLPRPRPRPHQKPRP
  shrunken log2 fold change: -0.127

## RRIRMRPPRLPRPRPRPGWVPRP
  shrunken log2 fold change: 0.0878

## RRIRWRPPRLPRPRPRPDNFPRP
  shrunken log2 fold change: -0.0334

## RRIRTRPPRLPRPRPRPNETPRP
  shrunken log2 fold change: 0.0139

## RRIRPRPPRLPRPRPRPWEVPRP
  shrunken log2 fold change: -0.0677

## RRIRSRPPRLPRPRPRPNVLPRP
  shrunken log2 fold change: 0.105

## RRIRVRPPRLPRPRPRPLFDPRP
  shrunken log2 fold change: -0.172

## RRIRHRPPRLPRPRPRPPKCPRP
  shrunken log2 fold change: 0.145

## RRIRARPPRLPRPRPRPLYAPRP
  shrunken log2 fold change: 0.0495

## RRIRPRPPRLPRPRPRPQSSPRP
  shrunken log2 fold change: -0.0675

## RRIRARPPRLPRPRPRPHRLPRP
  shrunken log2 fold change: -0.0138

## RRIRFRPPRLPRPRPRPKLPPRP
  shrunken log2 fold change: 0.404

## RRIRTRPPRLPRPRPRPTHNPRP
  shrunken log2 fold change: 0.0318

## RRIRGRPPRLPRPRPRPYKNPRP
  shrunken log2 fold change: -0.22

## RRIRSRPPRLPRPRPRPLMLPRP
  shrunken log2 fold change: -0.581

## RRIRLRPPRLPRPRPRPAHVPRP
  shrunken log2 fold change: 0.241

## RRIRQRPPRLPRPRPRPRIKPRP
  shrunken log2 fold change: 0.127

## RRIRIRPPRLPRPRPRPMMQPRP
  shrunken log2 fold change: -0.0907

## RRIRYRPPRLPRPRPRPSGAPRP
  shrunken log2 fold change: -0.299

## RRIRFRPPRLPRPRPRPLTKPRP
  shrunken log2 fold change: -0.2

## RRIRMRPPRLPRPRPRPWGRPRP
  shrunken log2 fold change: 0.389

## RRIRPRPPRLPRPRPRPFNTPRP
  shrunken log2 fold change: 0.39

## RRIRPRPPRLPRPRPRPTWMPRP
  shrunken log2 fold change: -0.0166

## RRIRARPPRLPRPRPRPYIRPRP
  shrunken log2 fold change: -0.406

## RRIRRRPPRLPRPRPRPCYVPRP
  shrunken log2 fold change: -0.583

## RRIRCRPPRLPRPRPRPHHCPRP
  shrunken log2 fold change: 0.00372

## RRIRKRPPRLPRPRPRPPNTPRP
  shrunken log2 fold change: 0.408

## RRIRKRPPRLPRPRPRPWSDPRP
  shrunken log2 fold change: -0.0989

## RRIRDRPPRLPRPRPRPKFMPRP
  shrunken log2 fold change: -0.191

## RRIRIRPPRLPRPRPRPVFCPRP
  shrunken log2 fold change: -0.321

## RRIRQRPPRLPRPRPRPKARPRP
  shrunken log2 fold change: 0.152

## RRIRIRPPRLPRPRPRPIFYPRP
  shrunken log2 fold change: -0.775

## RRIRQRPPRLPRPRPRPFWKPRP
  shrunken log2 fold change: -0.0968

## RRIRGRPPRLPRPRPRPIFVPRP
  shrunken log2 fold change: 0.42

## RRIRWRPPRLPRPRPRPPWMPRP
  shrunken log2 fold change: 0.371

## RRIRPRPPRLPRPRPRPMAYPRP
  shrunken log2 fold change: -0.126

## RRIRSRPPRLPRPRPRPWWPPRP
  shrunken log2 fold change: 0.0626

## RRIRPRPPRLPRPRPRPKSTPRP
  shrunken log2 fold change: -0.244

## RRIRNRPPRLPRPRPRPDCVPRP
  shrunken log2 fold change: -0.106

## RRIRERPPRLPRPRPRPPNEPRP
  shrunken log2 fold change: 0.28

## RRIRIRPPRLPRPRPRPAMGPRP
  shrunken log2 fold change: 1.17

## RRIRFRPPRLPRPRPRPKMLPRP
  shrunken log2 fold change: -0.0622

## RRIRMRPPRLPRPRPRPVECPRP
  shrunken log2 fold change: -0.117

## RRIRYRPPRLPRPRPRPPWKPRP
  shrunken log2 fold change: 0.0467

## RRIRLRPPRLPRPRPRPPYLPRP
  shrunken log2 fold change: -0.0206

## RRIRRRPPRLPRPRPRPAKTPRP
  shrunken log2 fold change: 0.408

## RRIRHRPPRLPRPRPRPERGPRP
  shrunken log2 fold change: 1.02

## RRIRQRPPRLPRPRPRPMMEPRP
  shrunken log2 fold change: 0.00908

## RRIRTRPPRLPRPRPRPDGHPRP
  shrunken log2 fold change: -0.102

## RRIRHRPPRLPRPRPRPYICPRP
  shrunken log2 fold change: -0.153

## RRIRGRPPRLPRPRPRPHNNPRP
  shrunken log2 fold change: -0.215

## RRIRKRPPRLPRPRPRPFLYPRP
  shrunken log2 fold change: -0.436

## RRIRVRPPRLPRPRPRPAGGPRP
  shrunken log2 fold change: 1.15

## RRIRPRPPRLPRPRPRPTVLPRP
  shrunken log2 fold change: -0.225

## RRIRPRPPRLPRPRPRPKTDPRP
  shrunken log2 fold change: -0.0446

## RRIRIRPPRLPRPRPRPPNHPRP
  shrunken log2 fold change: -0.475

## RRIRQRPPRLPRPRPRPSEAPRP
  shrunken log2 fold change: 0.17

## RRIRMRPPRLPRPRPRPDSDPRP
  shrunken log2 fold change: 2.6

## RRIRRRPPRLPRPRPRPHGIPRP
  shrunken log2 fold change: 0.0963

## RRIRMRPPRLPRPRPRPKATPRP
  shrunken log2 fold change: 0.0633

## RRIRHRPPRLPRPRPRPGKTPRP
  shrunken log2 fold change: -0.031

## RRIRGRPPRLPRPRPRPPTSPRP
  shrunken log2 fold change: 0.879

## RRIRGRPPRLPRPRPRPECFPRP
  shrunken log2 fold change: 1.92

## RRIRDRPPRLPRPRPRPRNRPRP
  shrunken log2 fold change: 0.0378

## RRIRERPPRLPRPRPRPARWPRP
  shrunken log2 fold change: 0.592

## RRIRIRPPRLPRPRPRPYIGPRP
  shrunken log2 fold change: -0.775

## RRIRHRPPRLPRPRPRPTDMPRP
  shrunken log2 fold change: 0.151

## RRIRLRPPRLPRPRPRPKYIPRP
  shrunken log2 fold change: -0.603

## RRIRKRPPRLPRPRPRPFFQPRP
  shrunken log2 fold change: 0.346

## RRIRMRPPRLPRPRPRPKGHPRP
  shrunken log2 fold change: 0.0377

## RRIRDRPPRLPRPRPRPLSTPRP
  shrunken log2 fold change: 0.377

## RRIRMRPPRLPRPRPRPTVTPRP
  shrunken log2 fold change: 0.307

## RRIRQRPPRLPRPRPRPQCAPRP
  shrunken log2 fold change: -0.183

## RRIRRRPPRLPRPRPRPNNHPRP
  shrunken log2 fold change: -0.374
